Reference: patent publication US20050095674A1, “Cannabinoid receptor interacting proteins and methods of use” (priority 2003, published 2005)

Key:
[1] = biological target: rat CB1 cannabinoid receptor, wild type (rat) (UniProt P20272); assay: cell-based or functional assay
[2] = biological target: T1, CB1-464 truncated receptor (Rattus norvegicus, UniProt P20272); assay: Whole-cell patch clamp of Ca2+ currents in SCG neurons expressing the CB1-464 truncated receptor; type: cell-based; conditions: coexpression of CRIP1a with CB1-464 truncated receptor
T1 construct: expressed in transfected cells
T1 sequence (P20272 1-464 limits assumed): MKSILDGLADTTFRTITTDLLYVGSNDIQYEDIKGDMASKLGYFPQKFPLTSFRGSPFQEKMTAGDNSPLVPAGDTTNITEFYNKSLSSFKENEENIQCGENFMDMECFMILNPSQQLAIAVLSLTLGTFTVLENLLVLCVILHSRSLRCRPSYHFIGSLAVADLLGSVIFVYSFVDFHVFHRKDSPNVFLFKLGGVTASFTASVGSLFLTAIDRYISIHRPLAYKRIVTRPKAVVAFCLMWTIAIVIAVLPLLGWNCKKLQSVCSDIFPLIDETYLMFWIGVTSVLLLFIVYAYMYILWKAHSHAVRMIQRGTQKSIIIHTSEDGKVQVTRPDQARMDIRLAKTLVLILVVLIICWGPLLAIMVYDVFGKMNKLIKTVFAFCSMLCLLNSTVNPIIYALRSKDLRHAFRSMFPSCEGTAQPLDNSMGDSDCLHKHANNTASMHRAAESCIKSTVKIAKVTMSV

CB1 receptors = biological target: T2, CB1 receptors (Rattus norvegicus, UniProt P20272); assay: Whole-cell patch clamp of Ca2+ currents in SCG neurons microinjected with rCB1 and rat CRIP1a; type: cell-based
T2 construct: expressed in transfected cells
T2 sequence (P20272 whole entry): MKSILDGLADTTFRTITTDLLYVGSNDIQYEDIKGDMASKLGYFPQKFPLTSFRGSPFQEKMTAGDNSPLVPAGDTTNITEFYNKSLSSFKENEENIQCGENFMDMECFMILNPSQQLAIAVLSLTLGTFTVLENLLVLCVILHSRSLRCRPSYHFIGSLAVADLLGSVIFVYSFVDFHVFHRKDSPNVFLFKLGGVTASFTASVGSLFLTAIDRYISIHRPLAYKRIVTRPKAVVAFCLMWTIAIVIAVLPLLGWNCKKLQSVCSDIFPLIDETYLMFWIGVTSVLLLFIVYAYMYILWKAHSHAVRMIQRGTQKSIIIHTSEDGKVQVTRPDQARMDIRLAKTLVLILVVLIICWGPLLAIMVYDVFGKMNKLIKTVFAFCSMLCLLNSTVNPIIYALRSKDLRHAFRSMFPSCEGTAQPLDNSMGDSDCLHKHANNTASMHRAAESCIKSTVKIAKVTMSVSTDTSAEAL

[3] = biological target: T3, amino acids at positions 418-472 of the human cannabinoid receptor (CB1) fused to the GALA DNA binding domain (human, UniProt P04386 1-147; P21554 418-472); assay: yeast two-hybrid, beta-galactosidase colour
T3 construct: Yeast two-hybrid bait in Y190 cells; also called bait plasmid

[4] = biological target: T4, C-terminus (amino acids 418-472) of the CB1 cannabinoid receptor (Homo sapiens, UniProt P21554); assay: Yeast two hybrid, domains of CRIP1b against the CB1 C-terminus; type: binding; conditions: CRIP1b parts tested alone and in combination
T4 construct: expressed in transfected cells; host or cells: Y190 yeast cells
T4 sequence (P21554 418-472): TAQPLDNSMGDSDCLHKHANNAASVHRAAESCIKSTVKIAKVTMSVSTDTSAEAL
Experimental: A human brain cDNA library (Clontech) containing 5×10^6 independent clones with an average insert size of 1.5 kb fused to the GALA activation domain was cotransformed into Y 190 yeast cells with a bait plasmid consisting of the amino acids at positions 418-472 of the human cannabinoid receptor (CB1) fused to the GALA DNA binding domain. An overnight culture of Y190 cells was diluted to an OD600 of 0.08 (20 ml/reaction) and incubated at 30° C. until an OD600 of 0.2-0.4. The cells were washed in […] of water and resuspended in […] of 100 mM LiAc, 10 mM Tris-HCl, pH 7.5, and 1 mM EDTA (LiAc/TE). Single stranded herring testis DNA (200 μg), 20 μg of bait plasmid, 20 μg of carrier plasmid, and 1.2 ml of 40% polyethyleneglycol/LiAc/TE were added to the cells, followed by incubation at 30° C. for 30 minutes at 225 rpm. […] After incubation of the plates at 30° C. for 3-5 days, β-galactosidase activity of the colonies was assessed by lifting colonies onto filters, lysing the colonies by freezing in liquid nitrogen, and exposing the filters to 20 mg/ml X-gal in phospate-containing buffer.
To determine which domains of CRIP1b interact with the C-terminus (amino acids 418-472) of the CB1 cannabinoid receptor, yeast two hybrid experiments were performed. […] When each exon was tested alone, no interaction was detected (FIGS. 5A, 5C, and 5E). […]

[5] = biological target: T5, GST alone coupled to Glutathione Sepharose-4B (UniProt P08515 1-218 = GST); assay: affinity chromatography on Glutathione Sepharose-4B, SDS-PAGE and S-tag Western blot
T5 construct: the lane descriptions speak of glutathione Sepharose only; also called GST column; glutathione sepharose only column
T5 sequence (P08515 whole entry): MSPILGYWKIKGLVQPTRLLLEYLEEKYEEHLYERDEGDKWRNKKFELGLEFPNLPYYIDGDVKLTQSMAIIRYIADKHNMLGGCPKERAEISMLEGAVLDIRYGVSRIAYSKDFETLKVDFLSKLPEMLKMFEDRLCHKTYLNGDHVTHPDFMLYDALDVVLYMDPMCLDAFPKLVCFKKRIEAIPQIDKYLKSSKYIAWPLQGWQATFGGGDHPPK

GST-CB1 (418-472) = biological target: T6, GST-CB1 (418-472) (Homo sapiens, UniProt P21554); assay: In vitro pull-down assay (GST affinity chromatography) of bacterially expressed proteins; type: binding
T6 construct: encoding amino acids at position 418-472 of the CB1 receptor into the pGEX-4T-1 expression vector; made in house; host or cells: bacteria; BL21(DE3) E. coli is stated for CRIP1b only
T6 sequence (P21554 418-472): as the sequence (P21554 418-472) above
Experimental: To confirm the interaction between the CB1 cannabinoid receptor and the interacting protein CRIP1b, in vitro pull-down assays of bacterially expressed proteins were performed. A GST fusion peptide was created between GST and a peptide of the CB1 receptor by cloning the polynucleotide sequence encoding amino acids at position 418-472 of the CB1 receptor into the pGEX-4T-1 expression vector. This GST fusion peptide was expressed and purified using standard protocols. GST alone and purified GST/CB1 fusion peptide were coupled to a first and second Glutathione Sepharose-4B column, respectively, as per standard protocols (Smith and Johnson, 1988, Gene, 67:31-40).
Polymerase chain reaction (PCR) was used to amplify the amino acids at positions 34-128 of CRIP1b in the pCT2 shuttle vector with EcoRI and XhoI restriction endonuclease sites. The PCR product was inserted in-frame into a pET30C expression plasmid harboring an S-tag (Novagen, Wis.). The resulting plasmid was transformed into BL21(DE3) E. coli cells, and these cells were induced to express CRIP1b by the introduction of isopropyl β-D-thiogalactopyranoside.
The bacteria were lysed in a buffer containing 50 mM Tris-Cl (pH 8.0), 1 mM EDTA, 100 mM NaCl, phenylmethylsulfonylfluoride (PMSF) (8 μl of 50 mM PMSF per gram of bacterial pellet). […]

[6] = biological target: T7, C-terminal tail of CB1 (amino acids 464-473 of rat CB1) (Rattus norvegicus, UniProt P20272); assay: Yeast two-hybrid, CB1 receptor interaction site with CRIP1b; type: binding
T7 construct: C-terminal tail of CB1 (amino acids 464-473 of rat CB1); expressed in transfected cells; host or cells: yeast (strain not restated for this experiment)
Description: The yeast two-hybrid technique was used to determine the CB1 receptor interaction site with CRIP1b. The C-terminus of the CB1 receptor contains separate domains critical for desensitization and internalization (Hsieh et al., 1999; Jin et al., 1999).

rat CRIP1a (from UniProt Q5M7A7 1-164)
Ca^2+ current facilitation ratio [1]: 1.26

B1: CRIP1a: CB1 receptor interacting protein 1a cloned from rat brain cDNA, 164 amino acids, SEQ ID NO:7 (protein, listed as Rattus sp.)
chain: MGDLPGIVRLSIALRIQPNDGPVFFKVDGQRFGQNRTIKLLTGSSYKVEVKIKPTTLQVENISIGGVLVPLELKCKEPDGERVVYTGIYDTEGVAPTKSGERQPIQITMPFTDIGTFETVWQVKFYNYHKRDHCQWGSPFSVIEYECKPNETRSLMWVNKESFL
effect on SR141716-induced increase of Ca2+ current [2]: did not significantly inhibit effect of SR141716 | Ca2+ current facilitation ratio (CB1 receptors; SCG neurons expressing CB1 receptors co-expressed with CRIP1a, 1.46±0.08 with CB1 alone): 1.26±0.03 | effect on agonist-induced (WIN55,212-2) inhibition of the Ca2+ current (CB1 receptors; SCG neurons expressing both CB1 and CRIP1a): had no effect on the agonist-induced inhibition of the Ca^2+ current | effect on SR141716-induced increase of Ca2+ current (constitutive activity of CB1) (CB1 receptors; co-expression of CRIP1a with CB1 receptors in SCG neurons): significantly inhibited the effect of SR141716 | effect on SR141716-induced increase of Ca2+ current (CB1 receptors; expression of CRIP1a alone, without CB1): had no effect

B2: CRIP1b exon 2 (amino acids 61-110 of SEQ ID NO:2) (other, not shown: large carriers)
chain: NISIGGVLVPLELKSKEPDGDRVVYTGTYDTEGVTPTKSGERQPIQITMP
notes: Yeast two-hybrid construct
binding result [3]: no binding

B3: CRIP1b exon 1 and exon 2: Exon 1 (amino acids 34-60 of SEQ ID NO:2) and exon 2 (amino acids 61-110) in combination (protein, listed as Homo sapiens)
chain: QNRTIKLLTGSSYKVEVKIKPSTLQVENISIGGVLVPLELKSKEPDGDRVVYTGTYDTEGVTPTKSGERQPIQITMP
interaction in yeast two hybrid [4]: positive interaction

B4: S-tagged CRIP1b (amino acids at positions 34-128) expressed from pET30C in BL21(DE3) E. coli (other)
chain: QNRTIKLLTGSSYKVEVKIKPSTLQVENISIGGVLVPLELKSKEPDGDRVVYTGTYDTEGVTPTKSGERQPIQITMPECLEQRPQEISLTYECEE
notes: also called CB1-IP1; CRIP1b lysate; not shown: vector-encoded leader of pET30C with the S-tag
binding result [5]: no binding | interaction in yeast two hybrid [4]: enhanced

B5: CRIP1b: CB1 Receptor Interacting Protein 1b, 128 amino acid human polypeptide, SEQ ID NO:2; amino acids 34-128 used in pull-down (protein, listed as Homo sapiens)
chain: MGDLPGLVRLSIALRTQPNDGPVFYKVDGQRFGQNRTIKLLTGSSYKVEVKIKPSTLQVENISIGGVLVPLELKSKEPDGDRVVYTGTYDTEGVTPTKSGERQPIQITMPECLEQRPQEISLTYECEE
pull-down by GST-CB1 (418-472) on glutathione-Sepharose 4B (GST-CB1 (418-472); S-tagged CRIP1b (amino acids 34-128) bacterial lysate): pulled down | binding to glutathione Sepharose-4B matrix without CB1 fragment (control) (GST-CB1 (418-472); S-tagged CRIP1b bacterial lysate): did not bind to glutathione Sepharose-4B on its own | interaction in yeast two-hybrid with the most distal 9 amino acids of the CB1 receptor ([6]; minimal CB1 domain tested): strong interaction | interaction in yeast two-hybrid with the CB1 desensitization and internalization domains ([6]; separate C-terminal domains of CB1): neither of these domains interacted strongly
